The values that follow come from patent US10788499B2, “Methods for assaying palmitoyl protein thioesterase 1 and tripeptidyl peptidase activity in dried blood spots for detection of neuronal ceroid lipofuscinoses in newborns” (University of Washington, priority 2015, dated 2020).

The target of data set [1] is T1, palmitoyl protein thioesterase 1 (PPT1) (Homo sapiens, UniProt P50897).
T1 construct: from tissue; host or cells: dried blood spots from human newborns, NCL patients and a healthy adult control
T1 sequence (P50897 28-306): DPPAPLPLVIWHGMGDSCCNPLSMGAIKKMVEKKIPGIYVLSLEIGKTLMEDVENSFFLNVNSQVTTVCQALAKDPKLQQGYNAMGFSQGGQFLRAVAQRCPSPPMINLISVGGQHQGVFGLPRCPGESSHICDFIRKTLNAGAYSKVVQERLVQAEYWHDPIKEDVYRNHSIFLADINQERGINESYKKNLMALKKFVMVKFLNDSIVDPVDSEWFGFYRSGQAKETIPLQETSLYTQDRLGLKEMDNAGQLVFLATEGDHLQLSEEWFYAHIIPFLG
The data set is described as follows: PPT1 assay in dried blood spots with synthetic substrate, tandem mass spectrometry (SRM). The format is biochemical. How it is done: (§1) Electrospray-MS/MS was carried out on a Waters Quattro Micro tandem quadrupole (quadrupole-hexapole-quadrupole) instrument using a positive ionization mode and selected reaction monitoring (SRM). Samples (10 μL) were flow-injected with an autosampler in an acetonitrile/water (v/v=80:20) solution containing 0.1% formic at a flow rate of 0.2 mL/min. The mass spectrometer settings were as follows: Capillary voltage 3.5 kV; cone 35 V; extractor 2.0 V; RF lens, 0.2 V; source temperature, 120° C.; desolvation temperature, 250° C.; cone gas flow, 50 L/h; desolvation gas flow, 500 L/h; LM 1 resolution, 14.8; HM 1 resolution, 14.8; ion energy 1, 0.2 eV; entrance, 2 V; collision, 25 eV; exit, 15 V; LM 2 resolution, 14.8; HM 2 resolution, 14.8; ion energy 2, 1.0 eV; multiplier, 650 V; gas cell Pirani pressure, 2.21×10^−3 mbar; dwell time 100 ms. Shorter dwell times (10 ms) were also investigated on the Quattro Micro instrument but led to increased coefficients of variation (CV) for intra-assay measurements from 1.5% at 100 ms to 4% at 10 ms, all for triplicate injections. The precursor ion-fragment ion SRM transitions for the PPT1 assays were monitored at m/z 762.5→m/z 423.5 and m/z 678.4→m/z 423.4 for PPT1-P and PPTI-IS, respectively, corresponding to the formation of the abundant y4 fragment ion of the peptide (FIGS. 1A and 1B). The SRM transitions for the TPP1 assays were monitored at m/z 308.3→m/z 208.3 and m/z 317.3→m/z 209.3 for TPP1-P and TPP1-IS, respectively, as shown in FIG. 2.
A 3-mm punch of a dried blood spot was placed in a 1.5 mL polypropylene tube (Eppendorf) and 100 μL of 100 mM phosphate buffer solution (pH 7) containing 46 nmol of PPT1 substrate (PPT1-S, FIG. 5 (left)) and 2.6 nmol of PPT1 internal standard (PPT1-IS) and 0.08% v/v Triton X-100 (ACROS, Cat #21568) was added. The solution was then vortexed briefly and incubated for 10 h at 37° C. in a thermostated air shaker at 250 rpm. After the incubation period was over, the sample was placed in an ice bath and the reaction was quenched by addition of 300 μL of ethyl acetate and 100 μL of deionized water. […]

A short description of data set [2]: Non-enzymatic hydrolysis of substrate in blank (absence of DBS), pH dependence. The format is physicochemical. An excerpt:
The PPT1 activity is known to have an optimum activity at pH 7 when acting on the natural substrate. […] The production of TPP-P by non-enzymatic hydrolysis in the blank sample at pH 4 was ca. 15 fold lower than that due to TPP1 activity in the DBS.

The target of data set [3] is T2, tripeptidyl peptidase 1 (TPP1) (Homo sapiens, UniProt O14773).
T2 construct: from tissue; host or cells: dried blood spots from human newborns, NCL II patients and a control
T2 sequence (O14773 196-563): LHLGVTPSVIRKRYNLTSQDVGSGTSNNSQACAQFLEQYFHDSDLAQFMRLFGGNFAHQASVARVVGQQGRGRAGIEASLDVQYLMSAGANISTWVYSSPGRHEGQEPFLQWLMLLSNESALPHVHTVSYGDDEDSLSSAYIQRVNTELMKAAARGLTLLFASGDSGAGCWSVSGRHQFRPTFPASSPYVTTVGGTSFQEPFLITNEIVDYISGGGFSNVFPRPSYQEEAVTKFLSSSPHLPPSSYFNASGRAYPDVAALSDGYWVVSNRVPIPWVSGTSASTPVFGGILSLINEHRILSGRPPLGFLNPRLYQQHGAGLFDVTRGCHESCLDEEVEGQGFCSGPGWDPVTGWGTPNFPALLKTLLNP
Kind of data set: TPP1 assay in dried blood spots with synthetic substrate, tandem mass spectrometry (SRM). In kind it is biochemical. How it is done: as §1
TPP1 substrate solution was prepared by dissolving 5 mg TPP1 substrate (FIG. 5 (right)) in 1.5 mL of dimethyl sulfoxide (DMSO). 1 mg TPP1 IS was dissolved in 1.5 mL of assay buffer, which contained 0.15 M NaCl and 0.1 M sodium acetate buffer at pH 4.0. This concentrated TPP1 IS solution was further diluted with stock assay buffer to make a 300 μM IS solution. The assay cocktail was a 100 μL mixture composed of 7.2 μL of substrate solution (40 nmol), 5 μL of 300 μM IS solution (1.5 nmol) and additional 87.8 μL of stock assay buffer. […]

Data set [4] in a line: Incubation of synthetic PPT1-P in assay buffer with DBS (digestion by proteolytic enzymes in rehydrated DBS). The conditions noted are these: 18 h. The format is in vitro ADME, human. How it is done:
The leveling-off effect can be in part due to enzymatic digestion of PPT1-P by proteolytic enzymes in rehydrated DBS. This was checked by incubating synthetic PPT1-P in the assay buffer with DBS for 18 h. […] Since PPT1-P and PPT1-IS are similar hydrophobic peptides, it is safe to presume that their depletion will occur at similar rates and will not affect their molar ratio. […] Based on these measurements, the incubation time for both PPT1 and TPP1 was set at 10 h. The enzyme kinetics with respect to the synthetic substrates was established through Michaelis-Menten plots which were fitted to obtain the Km and Vmax values (FIGS. 12A and 12B). Each Michaelis-Menten curve was obtained from triplicate activity measurements over an appropriate substrate concentration range (0-500 μM and 0-300 μM). […] The measured Km were used to adjust the initial substrate concentrations in the assays to ≥2 Km value, e.g. 0.46 and 0.40 mM for PPT1-S and TPP1-S, respectively.

The target of data set [5] is T3, palmitoyl protein thioesterase (Homo sapiens, UniProt P50897).
T3 sequence (P50897 28-306): T1 sequence (P50897 28-306)
The data set is described as follows: Simplex PPT1 assay (C12 thioester substrate) carried out with recombinant palmitoyl protein thioesterase, LC-MS/MS. In kind it is biochemical. The conditions noted are these: 2 μL recombinant PPT1 enzyme, 0.6 mM C12 thioester substrate, pH 6.75. How it is done: Assay cocktail: a substrate and internal standard stock solution (methanol solution) were pipetted into a vial and dried using a speed vacuum. After all the solvent is removed, the residue was diluted with assay buffer (0.1M phosphate citrate buffer, 0.08% Triton X-100 (or sodium taurocholate), 0.1 mM EDTA (or no EDTA) at pH=6.75) to a final concentration of 0.6 mM (substrate), 30 μM (Internal Standard), and mixed by vortexing.
[…] For the blank control, a 3.2 mm filter paper punch was placed in a vial. 30 μL of assay cocktail was added to each vial, which either includes dried blood spot (or filter paper blanks). The Eppendorf vial is shaken at 37° C. for 16 hrs using an orbital shaker (250 rpm)/incubator.
After the incubation, the assay is quenched with 100 μL of methanol/ethyl acetate=50/50 mixture, and then 400 μL of ethyl acetate, then 200 μL of 0.5M NaCl(aq), pipette up and down 10× times to mix well.
The sample tubes were then centrifuged at 3000 rpm for 5 minutes. 200 μL of upper layer solution (organic layer) was removed, and transferred to a new shallow plate. The solvent was evaporated under nitrogen gas flow, the remaining solid was reconstituted with 100 μL LC-MS solvent (55/45 water/acetonitrile with 0.1% formic acid). The solution was mixed up and down about 10 times with a pipettor.
The plate was placed on the autosampler of the LC-MS/MS for isocratic LC-MS/MS. […]

Setting [6] is: PPT1 in DBS, Michaelis-Menten fit, triplicate activity measurements.
[7] abbreviates: TPP1 in DBS, Michaelis-Menten fit, triplicate activity measurements.

Ends that are not written are not given here. * marks the point of attachment. Lauroyl = CCCCCCCCCCCC(=O)*

Turning to “N-Ac-Ala-Leu-Leu-Pro-Phe-Gly-Cys-S—COC11H23 (Ac-ALLPFGC(Lauroyl); also: S-acyl: name COC11H23, mods S-palmitoyl) [PPT1 substrate, cysteine terminated heptapeptide carrying an S-palmitoyl group]”, the “product produced on average per one DBS” value in data set [1] (10 h incubation) is on record as 4.7 nmol. For the same molecule, in data set [1] (setting [6]), the Km was 230 µM and the Vmax was determined as 217.0 µmol/L/h. For the same molecule, the “non-enzymatic hydrolysis of the thioester bond” value in data set [2] (between pH 7 and 8) was “substantially increased”.

Regarding `C[C@H](N)C(=O)N[C@@H](C)C(=O)N[C@@H](Cc1ccccc1)C(=O)NCc1ccc(C(=O)NCCCNC(=O)OC(C)(C)C)cc1` [TPP1 substrate], the “product produced per DBS” value in data set [3] (10 h incubation) is 1.7 nmol/DBS. In addition, in data set [3] (setting [7]), the Km stood at 53.3 µM and the Vmax stood at 46.0 µmol/L/h. Moreover, the “production of TPP-P by non-enzymatic hydrolysis in the blank sample, fold lower than that due to TPP1 activity in the DBS” value in data set [2] (pH 4) is on record as “ca. 15 fold”.

With Ac-ALLPFGC [PPT1-P], the “decrease of PPT1-P compared to a control sample” value in data set [4] is reported as 25-27%.

B1: recombinant PPT1 enzyme: recombinant palmitoyl protein thioesterase (protein, UniProt P50897 28-306, looked up)
Palmitoyl-protein …: T1 sequence (P50897 28-306)
For B1, the activity in data set [5] stood at 40.4682 μmol/Lh.

Broadly, the Km is the substrate concentration at which the rate is half of its maximum. Usually Vmax stands for the top rate of the reaction or transport when substrate is in excess.
